This note sets out measurements from PMC4407741.

The target in the test is soluble human neonatal Fc receptor (shFcRn; FcRn heavy chain ectodomain / beta2-microglobulin heterodimer) (UniProt P55899+P61769). Kind of test: SPR (BIAcore 3000). The conditions noted are these: 25°C, 150 mM NaCl, HBS-P: 10 mM HEPES at pH 6.0 and pH 7.5 (same buffer at both pH). A general note: In SPR one partner is held on a chip, and binding of the other changes the refractive index at the surface.

As a reminder, the Kd is the free concentration of one partner at which half of the binding sites on the other are occupied at equilibrium, for simple one-to-one binding. As usually defined, the koff is the first-order rate constant of dissociation. By kon is commonly meant a measure of how fast the partners come together.

In the case of “DX-2504 (clone M161-B04), fully human anti-FcRn IgG1 Affinity-matured heavy-chain CDR variant of DX-2500/M90-F11 (substitutions not printed)”, where the note is “pH 6.0”, the Kd was 1.5 nM, the koff turned out to be 0.00035 s⁻¹ and the kon came out at 240000 M⁻¹ s⁻¹. Where the note is “pH 7.5”, this substance gave an equilibrium dissociation constant (Kd) of 1.9 nM, a koff of 0.00028 s⁻¹ and a kon of 150000 M⁻¹ s⁻¹.
For the substance “DX-2500 (germlined parental clone M90-F11), fully human anti-FcRn IgG1 germlined relative to M90-F11 (changes not printed)”, the koff by setting is: (pH 6.0) 0.0177 s⁻¹; (pH 7.4) 0.0752 s⁻¹.
As to “DX-2507, fully human anti-FcRn IgG1 (variant of DX-2504) relative to DX-2504: LC-CDR3 Cys->Ala (position number not printed); C-terminal Lys deleted”, where the note is “pH 6.0”, the Kd was determined as 1.8 nM, the koff was determined as 0.00024 s⁻¹ and the kon amounted to 130000 M⁻¹ s⁻¹. Moreover, under “pH 7.5”, the Kd worked out at 2 nM, the koff was found to be 0.00024 s⁻¹ and the kon was 100000 M⁻¹ s⁻¹.
